Here are results for five molecules from article doi:10.1101/2021.05.10.443412 (bioRxiv, 2021).

Some targets named below: FIH-1 E250A (human, UniProt Q9NWT6 1-349, Glu250 replaced with Ala); FIH-1 K75A (human, UniProt Q9NWT6 1-349, Lys75 replaced with Ala); FIH-1 N171A (human, UniProt Q9NWT6 1-349, Asn171 replaced with Ala); FIH-1 E29A (human, UniProt Q9NWT6 1-349, Glu29 replaced with Ala); FIH-1 E79A (human, UniProt Q9NWT6 1-349, Glu79 replaced with Ala); FIH-1 D248A (human, UniProt Q9NWT6 1-349, Asp248 replaced with Ala); FIH-1 Y71A (human, UniProt Q9NWT6 1-349, Tyr71 replaced with Ala).

What all share (assay): ITC
In general terms: In ITC the heat of successive injections is recorded.

The target in assay [1] is factor inhibiting HIF-1 (FIH-1), full-length (human, UniProt Q9NWT6 1-349).
Sequence of factor inhibiting HIF-1 (FIH-1), full-length (Q9NWT6 whole entry): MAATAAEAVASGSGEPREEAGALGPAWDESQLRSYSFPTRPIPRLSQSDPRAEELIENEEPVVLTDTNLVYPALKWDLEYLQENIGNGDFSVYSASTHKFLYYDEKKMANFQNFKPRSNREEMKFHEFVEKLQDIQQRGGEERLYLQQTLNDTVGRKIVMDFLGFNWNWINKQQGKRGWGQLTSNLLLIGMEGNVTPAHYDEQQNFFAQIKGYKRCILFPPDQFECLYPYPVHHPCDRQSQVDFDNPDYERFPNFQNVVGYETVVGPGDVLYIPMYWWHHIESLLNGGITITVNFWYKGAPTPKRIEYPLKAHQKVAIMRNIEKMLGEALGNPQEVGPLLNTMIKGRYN

Sequence of FIH-1 K75A (Q9NWT6 whole entry K75A): as the sequence (Q9NWT6 whole entry) above, with K75A counted along it
Sequence of FIH-1 E250A (Q9NWT6 whole entry E250A): as the sequence (Q9NWT6 whole entry) above, with E250A counted along it
Sequence of FIH-1 E79A (Q9NWT6 whole entry E79A): as the sequence (Q9NWT6 whole entry) above, with E79A counted along it
Sequence of FIH-1 Y71A (Q9NWT6 whole entry Y71A): as the sequence (Q9NWT6 whole entry) above, with Y71A counted along it
Sequence of FIH-1 D248A (Q9NWT6 whole entry D248A): as the sequence (Q9NWT6 whole entry) above, with D248A counted along it
Sequence of FIH-1 N171A (Q9NWT6 whole entry N171A): as the sequence (Q9NWT6 whole entry) above, with N171A counted along it
Sequence of FIH-1 E29A (Q9NWT6 whole entry E29A): as the sequence (Q9NWT6 whole entry) above, with E29A counted along it

B1: Mint3NT, N-terminal fragment (1-214) of Mint3 (domain or fragment)
chain: MDFPTISRSPSGPPAMDLEGPRDILVPSEDLTPDSQWDPMPGGPGSLSRMELDESSLQELVQQFEALPGDLVGPSPGGAPCPLHIATGHGLASQEIADAHGLLSAEAGRDDLLGLLHCEECPPSQTGPEEPLEPAPRLLQPPEDPDEDSDSPEWVEGASAEQEGSRSSSSSPEPWLETVPLVTPEEPPAGAQSPETLASYPAPQEVPGPCDHED
Regarding B1, the binding result with FIH-1 E250A, with FIH-1 K75A, in the assay with FIH-1 N171A, with FIH-1 E29A, with FIH-1 E79A and with FIH-1 D248A was “binds” throughout. For the same molecule, the binding result in the assay with FIH-1 Y71A is on record as “binds”. The same molecule displayed a dH in assay [1] of -32.2 ± 0.7 kcal/mol. The stoichiometry N (commonly the number of molecules, sites or subunits per partner or assembly) in assay [1] amounted to 0.48 ± 0.02.

B2: Mint3NTmut (domain or fragment)
chain: MDFPTISRSPSGPPAMDLEGPRDILVPSEDLTPDSQWDPMPGGPGSLSRMELDESSLQELVQQFEALPGDLVGPSPGGAPCPLHIATGHGLASQEIADAHAAASAAAGRDDLLGLLHCEECPPSQTGPEEPLEPAPRLLQPPEDPDEDSDSPEWVEGASAEQEGSRSSSSSPEPWLETVPLVTPEEPPAGAQSPETLASYPAPQEVPGPCDHED
For B2, in assay [1], the equilibrium dissociation constant (Kd) (as a rule, the free concentration of one partner at which half of the binding sites on the other are occupied at equilibrium, for simple one-to-one binding) was 1.31 µM; the dH was -13.9 kcal/mol; the “stoichiometry N” value was approximately 0.5.

B3: short peptide of Mint3 (93-117) (peptide)
chain: SQEIADAHGLLSAEAGRDDLLGLLH
As for B3, in assay [1], binding was characterised by a dissociation constant (Kd) of 3 ± 0.6 µM and the “stoichiometry N” value was approximately 0.5.

B4: Mint3 (1-117) (domain or fragment)
chain: MDFPTISRSPSGPPAMDLEGPRDILVPSEDLTPDSQWDPMPGGPGSLSRMELDESSLQELVQQFEALPGDLVGPSPGGAPCPLHIATGHGLASQEIADAHGLLSAEAGRDDLLGLLH
For the molecule B4, in assay [1], binding was characterised by a dissociation constant (Kd) of 0.65 ± 0.07 µM and the “stoichiometry N” value was approximately 0.5.

B5: Mint3 fragment (1-92) (domain or fragment)
chain: MDFPTISRSPSGPPAMDLEGPRDILVPSEDLTPDSQWDPMPGGPGSLSRMELDESSLQELVQQFEALPGDLVGPSPGGAPCPLHIATGHGLA
With B5, the “stoichiometry N” value in assay [1] is approximately 0.5.
